Data set [1] addresses T1, RFC (Replication Factor C clamp loader);PCNA wild-type (Saccharomyces cerevisiae;Saccharomyces …, UniProt P38630;P40348;P38629;P40339;P38251;P15873 1-861;1-353;2-340;1-323;1-354;1-258, |). In words: fluorescence anisotropy; RFC titrated; 1 uM PCNA, 1 mM ATPgS, 10 mM MgCl2; Anisotropy: 30 mM Tris pH 7.5, 200 mM NaCl, 2 mM DTT, 1 mM ATPgS, 10 mM MgCl2, 100 nM TAMRA-DNA, 1 uM PCNA, 25 C. Crystals: 100 mM Na acetate pH 4.6, 100 mM NaCl, 14% PEG 4K, 20 C. The following applies: protein: recombinant;recombinant; tags: ;N-terminal 6-His, PreScission-cleaved; copies: 1;1;1;1;1;3; label: TAMRA at 5' end of template strand; 5' overhang 10 nt on template (3' recessed primer), 30 bp duplex. In general terms: Fluorescence polarisation rises when a labelled molecule tumbles more slowly, as on binding a larger partner.

Data set [2] has as its target T2, RFC (Replication Factor C clamp loader);PCNA K20A/K77A/R80A/R149A (Saccharomyces cerevisiae;Saccharomyces …, UniProt P38630;P40348;P38629;P40339;P38251;P15873 1-861;1-353;2-340;1-323;1-354;1-258, |K20A;K77A;R80A;R149A). In words: fluorescence anisotropy; RFC titrated; 1 uM mutant PCNA, 1 mM ATPgS, 10 mM MgCl2; Anisotropy: 30 mM Tris pH 7.5, 200 mM NaCl, 2 mM DTT, 1 mM ATPgS, 10 mM MgCl2, 100 nM TAMRA-DNA, 1 uM PCNA, 25 C. Crystals: 100 mM Na acetate pH 4.6, 100 mM NaCl, 14% PEG 4K, 20 C. The following applies: protein: recombinant;recombinant; tags: ;N-terminal 6-His, PreScission-cleaved; copies: 1;1;1;1;1;3; label: TAMRA at 5' end of template strand; 5' overhang 10 nt on template (3' recessed primer), 30 bp duplex.

Data set [3] concerns the molecule itself. In words: crystal structure; single-chain PCNA (three subunits joined on one chain) with a 10-base pair DNA; hanging drop, 100 mM Na acetate pH 4.6, 100 mM NaCl, 14% PEG 4K, 20°C; space group P2(1)2(1)2(1); 3.0 Å.
In data set [4] the target is single-chain PCNA (three fused PCNA subunits) (Saccharomyces cerevisiae, UniProt P15873;P15873;P15873 1-257;2-257;2-258, R110S;Y114S). In words: X-ray crystallography; 3.0 A; DNA tilted ~40 deg, partly disordered, refined as rigid body; pH 4.6; Anisotropy: 30 mM Tris pH 7.5, 200 mM NaCl, 2 mM DTT, 1 mM ATPgS, 10 mM MgCl2, 100 nM TAMRA-DNA, 1 uM PCNA, 25 C. Crystals: 100 mM Na acetate pH 4.6, 100 mM NaCl, 14% PEG 4K, 20 C. The following applies: protein: recombinant; tags: N-terminal 6-His, PreScission-cleavable; copies: 1;1;1; label: Cy5 at 5' end of primer strand; 5' overhang 4 nt on template, 10 bp duplex.
Sequence of single-chain PCNA (three fused PCNA subunits) (P15873 2-257 R110S/Y114S, one chain of several): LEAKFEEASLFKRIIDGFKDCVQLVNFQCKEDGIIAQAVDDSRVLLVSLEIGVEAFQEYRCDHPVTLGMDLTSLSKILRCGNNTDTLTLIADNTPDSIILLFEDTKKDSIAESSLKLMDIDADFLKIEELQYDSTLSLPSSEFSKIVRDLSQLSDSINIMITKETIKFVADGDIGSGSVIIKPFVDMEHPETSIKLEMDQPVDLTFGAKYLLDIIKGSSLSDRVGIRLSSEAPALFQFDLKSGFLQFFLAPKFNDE

Data set [5] deals with T1, RFC (Replication Factor C clamp …). In words: fluorescence anisotropy; RFC titrated; 1 uM PCNA, 1 mM ATPgS, 10 mM MgCl2; Kd only in figure; Anisotropy: 30 mM Tris pH 7.5, 200 mM NaCl, 2 mM DTT, 1 mM ATPgS, 10 mM MgCl2, 100 nM TAMRA-DNA, 1 uM PCNA, 25 C. Crystals: 100 mM Na acetate pH 4.6, 100 mM NaCl, 14% PEG 4K, 20 C. The following applies: protein: recombinant;recombinant; tags: ;N-terminal 6-His, PreScission-cleaved; copies: 1;1;1;1;1;3; label: TAMRA at 5' end of template strand; 5' overhang 10 nt on template (3' recessed primer), 13 bp duplex.

For data set [6], the target named is T2, RFC (Replication Factor C clamp …). In words: fluorescence anisotropy; RFC titrated; 1 uM mutant PCNA, 1 mM ATPgS, 10 mM MgCl2; affinity changes little vs wild-type PCNA; Kd only in figure; Anisotropy: 30 mM Tris pH 7.5, 200 mM NaCl, 2 mM DTT, 1 mM ATPgS, 10 mM MgCl2, 100 nM TAMRA-DNA, 1 uM PCNA, 25 C. Crystals: 100 mM Na acetate pH 4.6, 100 mM NaCl, 14% PEG 4K, 20 C. To be noted: protein: recombinant;recombinant; tags: ;N-terminal 6-His, PreScission-cleaved; copies: 1;1;1;1;1;3; label: TAMRA at 5' end of template strand; 5' overhang 10 nt on template (3' recessed primer), 13 bp duplex.

Broadly, the Kd is the equilibrium constant for the complex coming apart. Usually stoichiometry N stands for the number of molecules, sites or subunits per partner or assembly.

B1: DNA-30 (dsDNA)
DNA 1: GAGCATTCAAGGACTTAGGTCTGTATTTATCTACCCACAA
DNA 2: TTGTGGGTAGATAAATACAGACCTAAGTCC
In the case of B1, in data set [1], the Kd was about 100 nM. For the same molecule, in data set [2], the binding signal is ~5 fold weaker Kd than with wild-type PCNA (nearly 5).

B2: S. cerevisiae Proliferating Cell Nuclear Antigen (PCNA), wild type (natural protein)
chain: MLEAKFEEASLFKRIIDGFKDCVQLVNFQCKEDGIIAQAVDDSRVLLVSLEIGVEAFQEYRCDHPVTLGMDLTSLSKILRCGNNTDTLTLIADNTPDSIILLFEDTKKDRIAEYSLKLMDIDADFLKIEELQYDSTLSLPSSEFSKIVRDLSQLSDSINIMITKETIKFVADGDIGSGSVIIKPFVDMEHPETSIKLEMDQPVDLTFGAKYLLDIIKGSSLSDRVGIRLSSEAPALFQFDLKSGFLQFFLAPKFNDEE
notes: PCNA, S. cerevisiae; The subunit-with-subunit row from the single-chain PCNA structure is also written on this molecule; also called wild-type PCNA; yeast PCNA; source: E. coli BL21(DE3), purified (HisTrap FF, PreScission protease, HiTrap Q HP); not shown: His6, N-terminal, cleaved
On to B2, for which, in data set [3], the “stoichiometry N” value was 3.

B3: crystallization primer-template DNA (dsDNA)
DNA 1: TTTTATACGATGGG
DNA 2: CCCATCGTAT
In the case of B3, in data set [4], the binding result is given as “binds”.

B4: DNA-13 (dsDNA)
DNA 1: GAGCATTCAAGGACTTAGGTCTG
DNA 2: CAGACCTAAGTCC
As for B4, the binding result in data set [5] and in data set [6] was “binds” each time.
